PMC5179221 (2017)

Molecular target: NCoR peptide (Homo sapiens, UniProt O75376)
Test: fluorescence polarization

Sequence of NCoR peptide (O75376 whole entry): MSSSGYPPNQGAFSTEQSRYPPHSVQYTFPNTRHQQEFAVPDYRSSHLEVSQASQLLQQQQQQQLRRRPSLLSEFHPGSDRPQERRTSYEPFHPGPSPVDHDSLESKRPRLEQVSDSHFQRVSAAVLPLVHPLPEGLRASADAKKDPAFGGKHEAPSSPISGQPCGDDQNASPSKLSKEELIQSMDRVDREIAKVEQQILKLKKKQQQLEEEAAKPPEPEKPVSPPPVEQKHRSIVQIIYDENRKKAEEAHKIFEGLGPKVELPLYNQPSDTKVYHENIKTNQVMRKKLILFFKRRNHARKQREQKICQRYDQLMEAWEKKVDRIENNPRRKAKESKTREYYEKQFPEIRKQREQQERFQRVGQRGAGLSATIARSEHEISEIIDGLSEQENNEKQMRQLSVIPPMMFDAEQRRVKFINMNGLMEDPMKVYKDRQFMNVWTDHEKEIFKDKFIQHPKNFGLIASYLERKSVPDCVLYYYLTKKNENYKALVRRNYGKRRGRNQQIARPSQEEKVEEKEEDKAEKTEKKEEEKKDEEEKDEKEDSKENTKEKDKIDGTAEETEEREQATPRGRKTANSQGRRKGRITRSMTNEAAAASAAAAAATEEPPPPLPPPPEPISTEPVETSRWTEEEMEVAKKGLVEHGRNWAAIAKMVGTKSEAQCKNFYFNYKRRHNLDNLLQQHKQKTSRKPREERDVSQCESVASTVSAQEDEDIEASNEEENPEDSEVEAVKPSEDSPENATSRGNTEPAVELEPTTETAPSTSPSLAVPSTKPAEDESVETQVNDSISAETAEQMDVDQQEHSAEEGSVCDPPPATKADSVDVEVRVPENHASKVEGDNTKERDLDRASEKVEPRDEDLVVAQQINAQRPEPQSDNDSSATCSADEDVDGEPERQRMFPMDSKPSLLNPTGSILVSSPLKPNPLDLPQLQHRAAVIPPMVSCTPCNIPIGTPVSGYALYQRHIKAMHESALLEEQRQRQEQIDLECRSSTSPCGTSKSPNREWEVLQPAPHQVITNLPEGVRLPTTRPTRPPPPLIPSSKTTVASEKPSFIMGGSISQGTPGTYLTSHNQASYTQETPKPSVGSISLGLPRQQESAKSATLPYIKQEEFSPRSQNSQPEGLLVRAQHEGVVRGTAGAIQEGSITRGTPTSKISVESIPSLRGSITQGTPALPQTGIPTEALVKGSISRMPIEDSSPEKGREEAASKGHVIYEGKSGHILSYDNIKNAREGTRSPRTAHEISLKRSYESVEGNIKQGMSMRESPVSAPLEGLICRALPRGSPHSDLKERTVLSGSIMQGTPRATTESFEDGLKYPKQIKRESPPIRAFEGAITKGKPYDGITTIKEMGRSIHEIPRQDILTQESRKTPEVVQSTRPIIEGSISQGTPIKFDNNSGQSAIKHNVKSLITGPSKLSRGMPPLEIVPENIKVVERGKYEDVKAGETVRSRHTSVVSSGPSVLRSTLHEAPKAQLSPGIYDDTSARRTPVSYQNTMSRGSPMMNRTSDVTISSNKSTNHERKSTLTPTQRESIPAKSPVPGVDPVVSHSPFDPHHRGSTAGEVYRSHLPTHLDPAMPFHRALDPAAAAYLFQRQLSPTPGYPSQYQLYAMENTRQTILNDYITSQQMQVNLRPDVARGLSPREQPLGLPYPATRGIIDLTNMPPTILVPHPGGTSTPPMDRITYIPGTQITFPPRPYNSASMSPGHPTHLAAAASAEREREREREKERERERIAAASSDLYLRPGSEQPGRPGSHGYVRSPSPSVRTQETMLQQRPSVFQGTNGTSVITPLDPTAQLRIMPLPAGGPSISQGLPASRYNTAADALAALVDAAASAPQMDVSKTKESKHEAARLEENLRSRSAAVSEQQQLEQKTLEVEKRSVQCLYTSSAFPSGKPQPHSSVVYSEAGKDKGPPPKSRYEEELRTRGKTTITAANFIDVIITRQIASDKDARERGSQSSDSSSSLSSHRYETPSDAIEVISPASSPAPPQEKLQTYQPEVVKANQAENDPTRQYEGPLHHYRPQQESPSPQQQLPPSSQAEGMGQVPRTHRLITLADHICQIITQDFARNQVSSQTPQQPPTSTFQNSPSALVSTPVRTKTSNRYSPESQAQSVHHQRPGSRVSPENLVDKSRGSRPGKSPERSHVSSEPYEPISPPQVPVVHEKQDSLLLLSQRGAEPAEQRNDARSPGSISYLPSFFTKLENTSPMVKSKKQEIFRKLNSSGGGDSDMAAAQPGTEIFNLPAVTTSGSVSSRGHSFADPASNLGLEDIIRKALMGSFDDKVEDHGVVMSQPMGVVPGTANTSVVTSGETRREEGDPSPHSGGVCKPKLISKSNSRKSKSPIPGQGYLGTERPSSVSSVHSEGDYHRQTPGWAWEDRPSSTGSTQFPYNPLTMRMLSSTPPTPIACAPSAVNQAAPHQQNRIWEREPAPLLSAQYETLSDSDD

B1: PPARγ LBD LBD (protein)
chain: DLRALAKHLYDSYIKSFPLTKAKARAILTGKTTDKSPFVIYDMNSLMMGEDKIKFKHITPLQEQSKEVAIRIFQGCQFRSVEAVQEITEYAKSIPGFVNLDLNDQVTLLKYGVHEIIYTMLASLMNKDGVLISEGQGFMTREFLKSLRKPFGDFMEPKFEFAVKFNALELDDSDLAIFIAVIILSGDRPGLLNVKPIEDIQDNLLQALELQLKLNHPESSQLFAKLLQKMTDLRQIVTEHVQLLQVIKKTETDMSLHPLLQEIYKD
- Kd: 1.4 µM
